# B1: ANKRD40 (parent)
# chain: VCCCELGVNPDQVEKIRKLPNTLL
# Variants of: B1
# Experiment: protein stability index of a GFP-peptide fusion (GPS, HEK-293T) (PSI 1-6); higher = more stable
# Settings: c terminus: a fixed tail appended
# 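Further: lentivirally expressed fusions sorted by FACS into six bins by GFP to DsRed ratio, PSI derived from sequencing read proportions per bin multiplied by bin number.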
row,Variant,protein stability index
1,VCCCELGVNPDQVEKIRMLPNTLL,1.68
2,VCCCELGVNPDQVEKIRCLPNTLL,1.75
3,VCCCELGVNPDQVEKIRYLPNTLL,1.31
4,VCCCELGVNPDQVEKIRRLPNTLL,2.18
5,VCCCELGVNPDQVEKIRPLPNTLL,1.59
6,VCCCELGVNPDQVEKIRDLPNTLL,2.08
7,VCCCELGVNPDQVEAIRKLPNTLL,1.68
8,VCCCELGVNPDQVEHIRKLPNTLL,1.36
9,VCCCELGVNPDQVEIIRKLPNTLL,1.39
10,VCCCELGVNPDQVETIRKLPNTLL,1.66
11,VCCCELGVNPDQVELIRKLPNTLL,2.34
12,VCCCELGVNPDQVEYIRKLPNTLL,2.09
13,VCCCELGVNPDQVEWIRKLPNTLL,2.53
14,VCCCELGVNPDQVEVIRKLPNTLL,2.12
15,VCCCELGVNPDQVEFIRKLPNTLL,2.06
16,VCCCEDGVNPDQVEKIRKLPNTLL,3.28
17,VCCCEWGVNPDQVEKIRKLPNTLL,1.66
18,VCCCESGVNPDQVEKIRKLPNTLL,2.68
19,VCCCECGVNPDQVEKIRKLPNTLL,2.06
20,VCCCEIGVNPDQVEKIRKLPNTLL,1.8
21,VCCCEQGVNPDQVEKIRKLPNTLL,3.27
22,VCCCELGVNPDQVEKIYKLPNTLL,1.92
23,VCCCELGVNPDQVEKIHKLPNTLL,2.23
24,VCCCELGVNPDQVEKIAKLPNTLL,1.81

row,Variant,protein stability index
1,VCCCELGVNPDQVEKIIKLPNTLL,3.09
2,VCCCELGVNPDQVEKIGKLPNTLL,1.45
3,VCCCELGVNPDQVEKILKLPNTLL,1.78
4,VCCCELGVNPDQVEKIWKLPNTLL,1.74
5,VCCCELGVNPDQVEKIPKLPNTLL,2.15
6,VCCCELGVNPDQVEKIVKLPNTLL,1.82
7,VCCCELGVNPDQVEKIEKLPNTLL,2.31
8,VCCCELGVNPDQVQKIRKLPNTLL,1.48
9,VCCCELGVNPDQVKKIRKLPNTLL,1.48
10,VCCCELGVNPDQVRKIRKLPNTLL,1.05
11,VCCCELGVNPDQVVKIRKLPNTLL,1.45
12,VCCCELGVNPDQVHKIRKLPNTLL,2.08
13,VCCCELGVNPDPVEKIRKLPNTLL,1.86
14,VCCCELGVNPDYVEKIRKLPNTLL,1.21
15,VCCCELGVNPDLVEKIRKLPNTLL,2.52
16,VCCCELGVNPDAVEKIRKLPNTLL,2.09
17,VCCCELGVNPDHVEKIRKLPNTLL,1.42
18,VCCCELGVNPDSVEKIRKLPNTLL,2.3
19,VCCCELGVNPDFVEKIRKLPNTLL,2.14
20,VCCCELGVNPDMVEKIRKLPNTLL,2.03
21,VCCCELGVNPDGVEKIRKLPNTLL,2.07
22,VCCCELGVNPDDVEKIRKLPNTLL,2.29
23,VCCCELGVNPDWVEKIRKLPNTLL,2.29
24,VCCCELGVNPDQVEKIRKEPNTLL,2.73

row,Variant,protein stability index
1,VCCCELGVNPDQVEKIRKKPNTLL,2.48
2,VCCCELGVNPDQVEKIRKTPNTLL,2.33
3,VCCCELGVNPDQVEKIRKCPNTLL,2.34
4,VCCCELGVNPDQHEKIRKLPNTLL,1.77
5,VCCCELGVNPDQSEKIRKLPNTLL,2.05
6,VCCCELGVNPDQFEKIRKLPNTLL,1.4
7,VCCCELGVNPDQAEKIRKLPNTLL,1.71
8,VCCCELGVNPDQDEKIRKLPNTLL,3.11
9,VCCCELGVNPDQPEKIRKLPNTLL,2.18
10,VCCCELGVNPDQCEKIRKLPNTLL,1.91
11,VCCCELGVNPDQTEKIRKLPNTLL,1.76
12,VCCCELGVNPDQQEKIRKLPNTLL,2.42
13,VCCCELGVNPDQVEKIRKLPNTGL,2.51
14,VCCCELGVNPDQVEKIRKLPNTFL,1.51
15,VCCCELGVNPDQVEKIRKLPNTSL,2.25
16,VCCCELGVNPDQVEKIRKLPNTVL,2.25
17,VCCCELGVNPDQVEKIRKLPNTPL,2.75
18,VCCCELGVNPDQVEKIRKLPNTTL,2.33
19,VCCCELGVNPDQVEKIRKLPNTCL,1.71
20,VCCCELGVNPDQVEKIRKLPNTRL,1.66
21,VCCCELGVNPDQVEKIRKLPNTYL,1.45
22,VCCCELSVNPDQVEKIRKLPNTLL,1.72
23,VCCCELFVNPDQVEKIRKLPNTLL,2.27
24,VCCCELLVNPDQVEKIRKLPNTLL,2.3

row,Variant,protein stability index
1,VCCCELQVNPDQVEKIRKLPNTLL,2.02
2,VCCCELCVNPDQVEKIRKLPNTLL,2.6
3,VCCCELYVNPDQVEKIRKLPNTLL,1.88
4,VCCCELPVNPDQVEKIRKLPNTLL,1.76
5,VCCCELAVNPDQVEKIRKLPNTLL,2.02
6,VCCCELGVMPDQVEKIRKLPNTLL,2.23
7,VCCCELGVVPDQVEKIRKLPNTLL,1.75
8,VCCCELGVWPDQVEKIRKLPNTLL,2.8
9,VCCCELGVKPDQVEKIRKLPNTLL,2.33
10,VCCCELGVSPDQVEKIRKLPNTLL,2.3
11,VCCCELGVYPDQVEKIRKLPNTLL,1.78
12,VCCCELGVTPDQVEKIRKLPNTLL,1.68
13,VCCCELGVAPDQVEKIRKLPNTLL,1.47
14,VCCCELGVPPDQVEKIRKLPNTLL,2
15,VCCCELGVLPDQVEKIRKLPNTLL,1.97
16,VCCCELGVGPDQVEKIRKLPNTLL,1.96
17,VCCCELGVQPDQVEKIRKLPNTLL,1.62
18,VCCCDLGVNPDQVEKIRKLPNTLL,1.89
19,VCCCGLGVNPDQVEKIRKLPNTLL,1.33
20,VCCCNLGVNPDQVEKIRKLPNTLL,1.97
21,VCCCYLGVNPDQVEKIRKLPNTLL,2.68
22,VCCCALGVNPDQVEKIRKLPNTLL,1.84
23,VCCCHLGVNPDQVEKIRKLPNTLL,2.82
24,VCCCMLGVNPDQVEKIRKLPNTLL,1.32

row,Variant,protein stability index
1,VCCCELGVNPLQVEKIRKLPNTLL,1.91
2,VCCCELGVNPYQVEKIRKLPNTLL,2.55
3,VCCCELGVNPFQVEKIRKLPNTLL,1.49
4,VCCCELGVNPMQVEKIRKLPNTLL,2.41
5,VCCCELGVNPAQVEKIRKLPNTLL,1.79
6,VCCCELGVNPNQVEKIRKLPNTLL,1.42
7,VCCCELGVNPSQVEKIRKLPNTLL,1.9
8,VCCCELGVNPDQVEKIRKLPNHLL,1.8
9,VCCCELGVNPDQVEKIRKLPNALL,2.09
10,VCCCELGVNPDQVEKIRKLPNMLL,2.1
11,VCCCELGVNPDQVEKIRKLPNKLL,2.1
12,VCCCELGVNPDQVEKIRKLPNGLL,1.51
13,VCCCELGVNPDQVEKIRKLPNTLR,1.38
14,VCCCELGVNPDQVEKIRKLPNTLK,2.09
15,VCCCELGVNPDQVEKIRKLPNTLE,2.62
16,VCCCELGVNPDQVEKIRKLPNTLP,2.12
17,VCCCELGVNPDQVEKIRKLPNTLY,1.84
18,VCCCELGVNPDQVEKIRKLPNTLM,1.8
19,VCCCELGVNPDQVEKIRKLPNTLS,2.49
20,VCCCELGVNPDQVEKIRKLPNTLN,2.61
21,VCCCELGVNFDQVEKIRKLPNTLL,2.23
22,VCCCELGVNDDQVEKIRKLPNTLL,2.2
23,VCCCELGVNADQVEKIRKLPNTLL,2.14
24,VCCCELGVNYDQVEKIRKLPNTLL,1.31

row,Variant,protein stability index
1,VCCCELGVNRDQVEKIRKLPNTLL,2.35
2,VCCCELGVNIDQVEKIRKLPNTLL,1.8
3,VCCCELGVNPDQVEKIRKLPWTLL,1.32
4,VCCCELGVNPDQVEKIRKLPKTLL,3.13
5,VCCCELGVNPDQVEKIRKLPMTLL,1.84
6,VCCCELGVNPDQVEKIRKLPSTLL,1.9
7,VCCCELGVNPDQVEKIRKLPCTLL,2.21
8,VCCCELGVNPDQVEKIRKLPITLL,2.15
9,VCCCELGVNPDQVEKIRKLPETLL,2.02
10,VCCCELGVNPDQVEKIRKLPATLL,1.7
11,VCCCELGVNPDQVEKIRKLPVTLL,1.83
12,VCCCELGVNPDQVEKIRKLPPTLL,1.83
13,CCCCELGVNPDQVEKIRKLPNTLL,1.96
14,DCCCELGVNPDQVEKIRKLPNTLL,3.1
15,HCCCELGVNPDQVEKIRKLPNTLL,2.21
16,GCCCELGVNPDQVEKIRKLPNTLL,1.68
17,ECCCELGVNPDQVEKIRKLPNTLL,2.83
18,ACCCELGVNPDQVEKIRKLPNTLL,1.66
19,NCCCELGVNPDQVEKIRKLPNTLL,2.31
20,QCCCELGVNPDQVEKIRKLPNTLL,2.19
21,VCCCELGVNPDQVEKIRKLDNTLL,1.48
22,VCCCELGVNPDQVEKIRKLINTLL,1.38
23,VCCCELGVNPDQVEKIRKLVNTLL,1.82
24,VCCCELGVNPDQVEKIRKLGNTLL,2.08

row,Variant,protein stability index
1,VCCCELGVNPDQVEKIRKLKNTLL,1.95
2,VCCCELGVNPDQVEKIRKLLNTLL,2.02
3,VCCCELGVNPDQVEKIRKLSNTLL,1.95
4,VCCCELGVNPDQVEKIRKLTNTLL,2.2
5,VCKCELGVNPDQVEKIRKLPNTLL,2.23
6,VCACELGVNPDQVEKIRKLPNTLL,2.42
7,VCMCELGVNPDQVEKIRKLPNTLL,2.29
8,VCQCELGVNPDQVEKIRKLPNTLL,1.96
9,VCTCELGVNPDQVEKIRKLPNTLL,2.38
10,VCPCELGVNPDQVEKIRKLPNTLL,1.97
11,VCDCELGVNPDQVEKIRKLPNTLL,2.31
12,VCSCELGVNPDQVEKIRKLPNTLL,2.09
13,VLCCELGVNPDQVEKIRKLPNTLL,2.04
14,VECCELGVNPDQVEKIRKLPNTLL,3.52
15,VTCCELGVNPDQVEKIRKLPNTLL,2.72
16,VNCCELGVNPDQVEKIRKLPNTLL,2.7
17,VWCCELGVNPDQVEKIRKLPNTLL,1.45
18,VVCCELGVNPDQVEKIRKLPNTLL,3.24
19,VMCCELGVNPDQVEKIRKLPNTLL,2.4
20,VCCCELGVNPDQVEKWRKLPNTLL,2.13
21,VCCCELGVNPDQVEKGRKLPNTLL,2.01
22,VCCCELGVNPDQVEKNRKLPNTLL,3.14
23,VCCCELGVNPDQVEKDRKLPNTLL,2.76
24,VCCCELGVNPDQVEKQRKLPNTLL,2.32

row,Variant,protein stability index
1,VCCCELGVNPDQVEKARKLPNTLL,3.14
2,VCCCELGVNPDQVEKLRKLPNTLL,1.56
3,VCCCELGVNPDQVEKHRKLPNTLL,1.98
4,VCCCELGVNPDQVEKPRKLPNTLL,2.89
5,VCCCELGVNPDQVEKVRKLPNTLL,2.38
6,VCCCELGVNPDQVEKSRKLPNTLL,2.08
7,VCCCELGVNPDQVEKYRKLPNTLL,1.51
8,VCCCELGANPDQVEKIRKLPNTLL,1.86
9,VCCCELGNNPDQVEKIRKLPNTLL,1.99
10,VCCCELGYNPDQVEKIRKLPNTLL,1.77
11,VCCCELGENPDQVEKIRKLPNTLL,2.39
12,VCCCELGQNPDQVEKIRKLPNTLL,1.85
13,VCCHELGVNPDQVEKIRKLPNTLL,2.27
14,VCCSELGVNPDQVEKIRKLPNTLL,2.84
15,VCCRELGVNPDQVEKIRKLPNTLL,2.43
16,VCCMELGVNPDQVEKIRKLPNTLL,2.16
17,VCCTELGVNPDQVEKIRKLPNTLL,2.76
18,VCCAELGVNPDQVEKIRKLPNTLL,1.87
19,VCCQELGVNPDQVEKIRKLPNTLL,2.72
20,VCCFELGVNPDQVEKIRKLPNTLL,1.83

# Reference: the supplement of paper PMC10567573
